Here are results for three molecules from patent US20170022287A1 (Chugai, published 2017).

Test [1] concerns the target T1, CRD2-4.
T1 construct: also called fragmented human CD137-Fc fusion protein CRD2-4
Briefly: ELISA, coated CD137-Fc protein 2 µg/mL, antibody 10 or 5 µg/mL; absorbance 620 nm divided by that of the uncoated well. Here is the method: (§1) Fragmented human CD137-Fc fusion proteins were diluted to 2 μg/mL in an aqueous sodium carbonate solution adjusted to pH9.6. Fifty μL of a diluted fragmented human CD137-Fc fusion protein was added individually to each well of a Nunc MaxiSorp flat-bottom 96 well plate (Nunc). This was allowed to stand at 4° C. overnight or longer, and then the plate was allowed to stand at room temperature for one hour so that the plate has the same temperature as the room temperature. The solution containing the fragmented human CD137-Fc fusion protein was removed by tilting, and each well was washed three times with 300 μL of Wash buffer (TBS containing 0.1% Tween20, TaKaRa). Next, 150 μL of blocking buffer (TBS containing 2% BSA) was added to each well, and this was allowed to stand for one hour or more. The blocking buffer was removed by tilting, and each well was washed three times with Wash Buffer in a similar manner to an earlier step. Then, 50 μL of an antibody solution prepared in advance by dilution with TBS to 10 μg/mL or 5 μg/mL was added to each well. This was subjected to a speed of 600 rpm or so for one hour at room temperature to bind the antibody to the immobilized antigen. […] 100 μL of a secondary antibody solution produced by 1000-fold dilution with TBS containing 0.1% Tween20 was added to each well. For the secondary antibody, ANTIBODY ALKALINE PHOSPHATASE CONJUGATE HUMAN IMMUNOGLOBULIN ABSORBED Goat Anti-Human Kappa Alkaline Phosphate from BIOSOURCE was used in the case of antibodies carrying a Kappa chain, and Human Lambda Light Chain Antibody; Goat anti-Human Lambda Light Chain Antibody Alkaline Phosphatase Conjugated from BETHYL LABORATORIES INC. was used in the case of antibodies carrying a Lambda chain. […] Color development was performed using the BluePhos Microwell kit from KPL. After the chromogenic reaction was stopped using the AP stop solution from KPL, the absorbance was measured at 620 nm on an absorptiometer.

Test [2] has as its target T2, CRD1.
T2 construct: also called fragmented human CD137-Fc fusion protein CRD1
The description is as above. Here is the method: as §1

For test [3], the target named is T3, CRD1-2.
T3 construct: also called fragmented human CD137-Fc fusion protein CRD1-2
The description is as above. The method, then:
as §1

Test [4] deals with T4, CRD1-3.
T4 construct: also called fragmented human CD137-Fc fusion protein CRD1-3
The description is as above. The method, then: as §1

The target of test [5] is T5, CRD2-3.
T5 construct: also called fragmented human CD137-Fc fusion protein CRD2-3
The test is described as above. The method, then:
as §1

The target of test [6] is T6, CRD3-4.
T6 construct: also called fragmented human CD137-Fc fusion protein CRD3-4
Described as above. Here is the method:
as §1

Test [7] concerns the target full-length human CD137-Fc fusion protein (human). The test is described as above. Here is the method:
as §1

For test [8], the target named is T1, CRD2-4. Description: ELISA, coated CD137-Fc protein 2 µg/mL, antibody 10 or 5 µg/mL, absorbance 620 nm; Non (uncoated well) 0.3465. Here is the method: as §1
Test [9] concerns the target T2, CRD1. The test is described as above. The method, then:
as §1

The target of test [10] is T3, CRD1-2. The description is as above. The method, then:
as §1

In test [11] the target is T4, CRD1-3. The test is described as above. The method, then:
as §1

For test [12], the target named is T5, CRD2-3. Described as above. The method, then: as §1
Test [13] concerns the target T6, CRD3-4. The test is described as above. The method, then:
as §1

Test [14] addresses full-length human CD137-Fc fusion protein (human). The description is as above. Here is the method:
as §1

Test [15] addresses T1, CRD2-4. Description: ELISA, coated CD137-Fc protein 2 µg/mL, antibody 10 or 5 µg/mL, absorbance 620 nm; Non (uncoated well) 0.166. Here is the method:
as §1

In test [16] the target is T2, CRD1. The description is as above. The method, then:
as §1

In test [17] the target is T3, CRD1-2. The description is as above. The method, then:
as §1

The target in test [18] is T4, CRD1-3. The test is described as above. The method, then:
as §1

For test [19], the target named is T5, CRD2-3. The test is described as above. Here is the method:
as §1

Test [20] addresses T6, CRD3-4. The test is described as above. Here is the method:
as §1

Test [21] has as its target full-length human CD137-Fc fusion protein (human). The description is as above. The method, then:
as §1

The target of test [22] is T1, CRD2-4. Briefly: ELISA, coated CD137-Fc protein 2 µg/mL, antibody 10 or 5 µg/mL, absorbance 620 nm; Non (uncoated well) 0.065. The method, then: as §1
Test [23] deals with T2, CRD1. The description is as above. Here is the method: as §1
The target of test [24] is T3, CRD1-2. The test is described as above. Here is the method:
as §1

Test [25] has as its target T5, CRD2-3. The test is described as above. The method, then:
as §1

For test [26], the target named is T6, CRD3-4. The description is as above. Here is the method:
as §1

Test [27] concerns the target full-length human CD137-Fc fusion protein (human). The description is as above. Here is the method: as §1

Positions count from the first letter of the chain named.

T6 sequence (chain, as listed by the source limits assumed): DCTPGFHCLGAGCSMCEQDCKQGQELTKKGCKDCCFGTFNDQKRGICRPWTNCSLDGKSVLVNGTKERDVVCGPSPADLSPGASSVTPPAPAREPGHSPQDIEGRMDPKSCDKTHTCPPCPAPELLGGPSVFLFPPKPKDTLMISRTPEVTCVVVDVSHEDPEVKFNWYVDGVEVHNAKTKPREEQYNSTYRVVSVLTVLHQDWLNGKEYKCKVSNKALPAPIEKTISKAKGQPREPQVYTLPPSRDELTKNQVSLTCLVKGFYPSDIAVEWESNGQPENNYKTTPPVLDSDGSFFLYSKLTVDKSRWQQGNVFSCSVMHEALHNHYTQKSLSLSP
T3 sequence (chain, as listed by the source limits assumed): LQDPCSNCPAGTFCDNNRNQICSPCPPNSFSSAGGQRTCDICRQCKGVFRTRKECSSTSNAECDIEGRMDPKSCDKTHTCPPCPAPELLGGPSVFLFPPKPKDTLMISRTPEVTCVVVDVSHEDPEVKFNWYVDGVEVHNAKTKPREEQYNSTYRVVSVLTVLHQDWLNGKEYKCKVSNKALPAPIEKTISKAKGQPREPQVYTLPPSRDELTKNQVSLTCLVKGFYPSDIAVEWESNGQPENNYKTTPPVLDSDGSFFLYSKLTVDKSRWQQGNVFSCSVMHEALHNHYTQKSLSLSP
T1 sequence (chain, as listed by the source limits assumed): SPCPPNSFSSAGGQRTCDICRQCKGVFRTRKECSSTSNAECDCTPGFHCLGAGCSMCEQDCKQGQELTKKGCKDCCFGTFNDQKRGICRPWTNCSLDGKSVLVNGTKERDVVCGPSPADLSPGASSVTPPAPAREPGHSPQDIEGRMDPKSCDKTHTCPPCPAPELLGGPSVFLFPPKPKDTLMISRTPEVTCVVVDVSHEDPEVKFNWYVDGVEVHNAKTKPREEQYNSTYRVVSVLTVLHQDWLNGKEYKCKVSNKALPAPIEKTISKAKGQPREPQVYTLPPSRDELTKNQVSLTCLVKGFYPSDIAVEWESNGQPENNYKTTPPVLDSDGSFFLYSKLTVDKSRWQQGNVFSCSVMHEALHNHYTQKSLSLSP
T4 sequence (chain, as listed by the source limits assumed): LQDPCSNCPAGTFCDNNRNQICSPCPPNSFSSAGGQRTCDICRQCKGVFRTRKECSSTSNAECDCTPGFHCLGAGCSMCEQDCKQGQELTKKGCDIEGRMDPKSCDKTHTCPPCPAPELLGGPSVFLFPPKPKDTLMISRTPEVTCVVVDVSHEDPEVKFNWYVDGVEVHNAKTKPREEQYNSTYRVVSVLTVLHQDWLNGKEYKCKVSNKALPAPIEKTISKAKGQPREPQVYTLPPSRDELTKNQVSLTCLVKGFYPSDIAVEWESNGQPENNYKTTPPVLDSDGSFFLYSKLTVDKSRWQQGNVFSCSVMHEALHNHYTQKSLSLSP
full-length human CD137-Fc fusion protein (human), sequence (chain, as listed by the source limits assumed): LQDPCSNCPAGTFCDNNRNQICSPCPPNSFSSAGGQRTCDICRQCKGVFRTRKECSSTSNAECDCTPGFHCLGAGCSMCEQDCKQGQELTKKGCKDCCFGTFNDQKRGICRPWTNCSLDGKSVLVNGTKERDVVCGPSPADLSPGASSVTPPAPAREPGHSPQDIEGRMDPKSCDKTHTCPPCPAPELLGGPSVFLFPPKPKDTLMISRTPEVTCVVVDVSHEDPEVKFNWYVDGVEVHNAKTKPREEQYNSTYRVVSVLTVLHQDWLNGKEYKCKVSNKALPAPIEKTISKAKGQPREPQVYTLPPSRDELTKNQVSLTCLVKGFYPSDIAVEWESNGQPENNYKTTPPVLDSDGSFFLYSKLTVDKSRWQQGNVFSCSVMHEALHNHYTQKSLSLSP
T5 sequence (chain, as listed by the source limits assumed): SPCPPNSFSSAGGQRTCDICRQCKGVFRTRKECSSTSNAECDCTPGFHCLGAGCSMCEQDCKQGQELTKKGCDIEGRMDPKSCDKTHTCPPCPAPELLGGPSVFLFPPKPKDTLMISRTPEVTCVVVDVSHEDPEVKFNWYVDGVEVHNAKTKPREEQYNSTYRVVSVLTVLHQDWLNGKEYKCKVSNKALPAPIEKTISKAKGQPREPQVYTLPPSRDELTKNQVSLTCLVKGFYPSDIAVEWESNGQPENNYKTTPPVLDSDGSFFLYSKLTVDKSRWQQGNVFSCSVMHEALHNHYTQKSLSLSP
T2 sequence (chain, as listed by the source limits assumed): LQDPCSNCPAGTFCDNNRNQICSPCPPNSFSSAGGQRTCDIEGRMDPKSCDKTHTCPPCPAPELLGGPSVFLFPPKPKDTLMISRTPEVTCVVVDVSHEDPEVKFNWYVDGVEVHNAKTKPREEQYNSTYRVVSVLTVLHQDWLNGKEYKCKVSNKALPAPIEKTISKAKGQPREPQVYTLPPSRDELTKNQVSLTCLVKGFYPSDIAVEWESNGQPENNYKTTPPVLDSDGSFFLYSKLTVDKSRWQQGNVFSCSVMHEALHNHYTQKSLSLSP

B1: R18 (antibody, V domains shown)
VH: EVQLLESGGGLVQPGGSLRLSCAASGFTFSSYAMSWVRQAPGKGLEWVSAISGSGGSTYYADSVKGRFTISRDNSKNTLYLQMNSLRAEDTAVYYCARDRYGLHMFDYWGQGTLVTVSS
VL: DIQMTQSPSSLSASVGDRVTITCRASQSISSYLNWYQQKPGKAPKLLIYAASSLQSGVPSRFSGSGSGTDFTLTISSLQPEDFATYYCLQFNSFPLTFGGGTKVEIK
notes: Synthetic library clone; Fab on phage in the phage ELISA
With B1, the “Ratio with respect to Non-Coating” value with CRD2-4 [1] amounted to 6.6; with CRD1 [2], 1.2; with CRD1-2 [3] it was 1.2; in the test with CRD1-3 [4] it was 6.6; with CRD2-3 [5], 7.2; with CRD3-4 [6] it was 7.7. For the same molecule, in test [7], the “Ratio with respect to Non-Coating” value worked out at 5.8. The “ELISA color development level” value with CRD2-4 [8] is 2.27; with CRD1 [9], 0.4; with CRD1-2 [10], 0.419; with CRD1-3 [11], 2.29; with CRD2-3 [12] it was 2.49; with CRD3-4 [13], 2.65. Further, the “ELISA color development level” value in test [14] was found to be 2.03.

B2: R17 (antibody, V domains shown)
VH: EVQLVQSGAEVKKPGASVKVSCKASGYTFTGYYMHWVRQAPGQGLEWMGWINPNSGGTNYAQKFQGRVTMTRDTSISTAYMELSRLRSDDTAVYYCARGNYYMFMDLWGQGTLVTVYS
VL: B1 VL with N92T
notes: as for B1
As to B2, the “Ratio with respect to Non-Coating” value is 11.6 with CRD2-4 [1]; 1.2 with CRD1 [2]; 1 with CRD1-2 [3]; 12.4 in the test with CRD1-3 [4]; 14.7 with CRD2-3 [5]; 14.9 in the test with CRD3-4 [6]. Besides, in test [7], the “Ratio with respect to Non-Coating” value stood at 8.1. In addition, the “ELISA color development level” value turned out to be 1.92 with CRD2-4 [15]; 0.197 with CRD1 [16]; 0.169 in the test with CRD1-2 [17]; 2.05 with CRD1-3 [18]; 2.44 with CRD2-3 [19]; 2.47 with CRD3-4 [20]. The “ELISA color development level” value in test [21] was 1.34.

B3: R1 (antibody, V domains shown)
VH: EVQLVQSGAEVKKPGASVKVSCKASGYTFTSYYTHWVRQAPGQGLEWMGIINPSGGSTSYAQKFQGRVTMTRDTSTSTVYMELSSLRSEDTAVYYCARGAPEYSSSSDYWGQGTMVTVSS
VL: QSALTQPASVSGSPGQSITISCTGTSSDVGGYNYVSWYQQHPGKAPKLMIYDVSNRPSGVSNRFSGSKSGNTASLTISGLQAEDEADYYCSSYTSSSTRWVFGGGTKLTVL
notes: Naive library clone; Fab on phage in the phage ELISA
For B3, the “ELISA color development level” value came to 0.0935 in the test with CRD2-4 [22]; 0.123 with CRD1 [23]; 0.865 in the test with CRD1-2 [24]; 0.117 with CRD2-3 [25]; 0.0875 in the test with CRD3-4 [26]; 1.79 in test [27]. The “Ratio with respect to Non-Coating” value with CRD2-4 [1] was 1.4; with CRD1 [2] it was 1.9; with CRD1-2 [3], 13.3; with CRD2-3 [5], 1.8; with CRD3-4 [6], 1.3; in test [7] it was 27.6.
